# Assay results: publication PMC4104026
# Target: Hfq (His6-tagged) (UniProt P0A6X3)
# Assay: EMSA
# Conditions: Single-RNA EMSA: 10 mM Tris-HCl pH 7.4, 0.1 mM EDTA, 10 mM NH4Cl, 10 mM NaCl, 10 mM KCl, 1 mg/ml tRNA, 4% glycerol, RT 5 min; ~40 fmol RNA (legend; Methods say …)
# Hfq (His6-tagged), sequence (P0A6X3 whole entry): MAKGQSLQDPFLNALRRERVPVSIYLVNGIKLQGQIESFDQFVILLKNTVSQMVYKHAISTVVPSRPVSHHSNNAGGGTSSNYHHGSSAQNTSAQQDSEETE
substance,measurement,value
DppA mRNA 5' 166 nt (DppASal),binding signal (fold higher affinity than AgvB and GcvB),10
